Results reported in patent publication US20100329980A1 (GENE TECHNO SCIENCE, published 2010).
Ends that are not written are not given here.

T1: human α4 integrin (human, UniProt P13612 34-1032)
T1 construct: whole, on cells; also called Human α4/CHO-K1 cells; CHO K1 cells expressing human α4 integrin
T1 sequence (looked up): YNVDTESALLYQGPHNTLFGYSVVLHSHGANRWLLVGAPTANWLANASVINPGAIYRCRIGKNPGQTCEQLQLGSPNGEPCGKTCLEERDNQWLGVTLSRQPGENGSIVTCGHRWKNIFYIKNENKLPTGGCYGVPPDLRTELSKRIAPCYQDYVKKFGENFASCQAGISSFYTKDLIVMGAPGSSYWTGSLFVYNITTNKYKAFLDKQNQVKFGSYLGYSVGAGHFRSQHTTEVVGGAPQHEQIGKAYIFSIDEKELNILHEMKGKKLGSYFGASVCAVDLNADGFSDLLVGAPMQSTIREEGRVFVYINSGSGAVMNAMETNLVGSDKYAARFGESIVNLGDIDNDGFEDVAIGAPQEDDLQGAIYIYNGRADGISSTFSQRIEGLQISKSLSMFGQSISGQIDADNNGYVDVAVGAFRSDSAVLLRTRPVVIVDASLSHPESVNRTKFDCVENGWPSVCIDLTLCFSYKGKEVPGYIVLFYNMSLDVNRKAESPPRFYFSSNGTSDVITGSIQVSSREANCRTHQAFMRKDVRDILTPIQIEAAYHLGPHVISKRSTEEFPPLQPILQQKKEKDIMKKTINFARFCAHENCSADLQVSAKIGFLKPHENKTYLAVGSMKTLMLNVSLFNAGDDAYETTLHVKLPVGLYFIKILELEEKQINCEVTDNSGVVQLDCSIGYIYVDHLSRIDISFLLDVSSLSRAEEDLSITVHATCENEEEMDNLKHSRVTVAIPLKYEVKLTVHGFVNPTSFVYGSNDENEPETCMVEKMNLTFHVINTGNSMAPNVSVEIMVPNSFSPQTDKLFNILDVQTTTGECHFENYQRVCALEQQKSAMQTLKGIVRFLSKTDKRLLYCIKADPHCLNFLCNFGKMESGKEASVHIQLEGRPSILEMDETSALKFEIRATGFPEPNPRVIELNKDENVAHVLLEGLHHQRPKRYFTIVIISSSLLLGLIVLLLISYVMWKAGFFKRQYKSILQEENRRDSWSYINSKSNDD

T2: Human α9 integrin sequence RHYVAHVKRRVQDVISPI (SEQ ID NO: 87) (human, also: coupled to cellulose membrane via C6-spacer and 2 βAla, end not given here)
T2 construct: Spots were twelve-residue peptides offset by three residues
T2 peptide: RHYVAHVKRRVQDVISPI

T3: Human α9 integrin sequence KSPGAVFKCRVHTNPDRR (SEQ ID NO: 78) (human, also: coupled to cellulose membrane via C6-spacer and 2 βAla, end not given here)
T3 construct: Spots were twelve-residue peptides offset by three residues
T3 peptide: KSPGAVFKCRVHTNPDRR

T4: Human α9 integrin sequence SSSVIQFMSRAKVKVDPALRV (SEQ ID NO: 91) (human, coupled to a cellulose membrane via C6-spacer and 2 βAla residues)
T4 construct: Spots were twelve-residue peptides offset by three residues
T4 peptide: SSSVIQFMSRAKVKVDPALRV

T5: Human α9 integrin sequence YLALGAVKNISL (SEQ ID NO: 89) (human, also: coupled to cellulose membrane via C6-spacer and 2 βAla (end not given here))
T5 construct: Spots were twelve-residue peptides offset by three residues
T5 peptide: YLALGAVKNISL

T6: Human α9 integrin sequence QYSMKLSGQKINPVLRMFGQSISG (SEQ ID NO: 85) (human, coupled to a cellulose membrane via C6-spacer and 2 βAla residues)
T6 construct: Spots were twelve-residue peptides offset by three residues
T6 peptide: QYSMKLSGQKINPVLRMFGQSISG

T7: Human α9 integrin sequence GFCYIIPSNLQAKGRTLI (SEQ ID NO: 81) (human, also: coupled to cellulose membrane via C6-spacer and 2 βAla, end not given here)
T7 construct: Spots were twelve-residue peptides offset by three residues
T7 peptide: GFCYIIPSNLQAKGRTLI

T8: Human α9 integrin sequence VMGAPGSFYWAGTIKVLN (SEQ ID NO: 82) (human, also: coupled to cellulose membrane via C6-spacer and 2 βAla, end not given here)
T8 construct: Spots were twelve-residue peptides offset by three residues
T8 peptide: VMGAPGSFYWAGTIKVLN

T9: Human α9 integrin sequence CSVGFPFMRSKSKYEFSV (SEQ ID NO: 90) (human, also: coupled to cellulose membrane via C6-spacer and 2 βAla, end not given here)
T9 construct: Spots were twelve-residue peptides offset by three residues
T9 peptide: CSVGFPFMRSKSKYEFSV

T10: Human α9 integrin sequence CAHRWKNIYYEADHI (SEQ ID NO: 80) (human, also: coupled to cellulose membrane via C6-spacer and 2 βAla, end not given here)
T10 construct: Spots were twelve-residue peptides offset by three residues
T10 peptide: CAHRWKNIYYEADHI

T11: Human α9 integrin sequence VIMNRRYTYLGYAVT (SEQ ID NO: 83) (human, also: coupled to cellulose membrane via C6-spacer and 2 βAla, end not given here)
T11 construct: Spots were twelve-residue peptides offset by three residues
T11 peptide: VIMNRRYTYLGYAVT


Key:
[1] = target: T1, human α4 integrin; test: hybridoma screening on transfected CHO-K1 cells
[2] = target: T2, Human α9 integrin sequence …; test: peptide spot membrane, peroxidase-labelled antibody, ECL
Method: (§1) Twelve-residue polypeptides, starting from N-terminal of human α9 integrin and every three residues thereafter (i.e., amino acid residues 1-12, 4-15, 7-18, and so forth) were prepared and coupled to a cellulose membrane via C6-spacer and 2 βAla residues at 5 nmol/spot. The membrane was blocked with a blocking buffer (milk/0.05% Tween20 in PBS) and reacted with 10 ml of solution containing 1.0 μg/ml of each of the anti-human α9 integrin monoclonal antibodies (i.e., 1K11, 21C5, 24I11 and 25 B6, respectively) labeled with peroxidase for three hours at room temperature. After washing with T-TBS, the membrane was reacted with enhanced chemiluminescence (ECL) detecting reagent for 1 minute at room temperature. The luminescence emitted as a result of the enzymatic reaction is measured and epitopes of the antibodies were determined based on the luminescence intensities. As a control, Y9A2 (see Wang et al., 1996, Am J Respir Cell Mol Biol 15, 664-672), a commercially available monoclonal antibody against human α9 integrin, was used.

[3] = target: T12, Human α9 integrin sequence … (SEQ ID NO: 86) (human, coupled to a cellulose membrane via C6-spacer and 2 βAla residues); test: as above
T12 construct: Spots were twelve-residue peptides offset by three residues
Method: as §1

[4] = target: T3, Human α9 integrin sequence …; test: as above
Method: as §1

[5] = target: T4, Human α9 integrin sequence …; test: as above
Method: as §1

[6] = target: T5, Human α9 integrin sequence YLALGAVKNISL …; test: as above
Method: as §1

[7] = target: T6, Human α9 integrin sequence …; test: as above
Method: as §1

[8] = target: T7, Human α9 integrin sequence …; test: as above
Method: as §1

[9] = target: T13, Human α9 integrin sequence … (SEQ ID NO: 79) (human, coupled to a cellulose membrane via C6-spacer and 2 βAla residues); test: as above
T13 construct: Spots were twelve-residue peptides offset by three residues
Method: as §1

[10] = target: T8, Human α9 integrin sequence …; test: as above
Method: as §1

[11] = target: T9, Human α9 integrin sequence …; test: as above
Method: as §1

[12] = target: T10, Human α9 integrin sequence …; test: as above
Method: as §1

[13] = target: T14, Human α9 integrin sequence … (SEQ ID NO: 84) (human, coupled to a cellulose membrane via C6-spacer and 2 βAla residues); test: as above
T14 construct: Spots were twelve-residue peptides offset by three residues
Method: as §1

[14] = target: T11, Human α9 integrin sequence …; test: as above
Method: as §1

[15] = target: T1, human α4 integrin; test: FACS, FITC-labeled anti-mouse IgG secondary
Method: Whether the anti-human α9 integrin antibodies were usable for FACS was examined using Human α9/CHO-K1 cells, CHO-K1 cells and human neutrophils endogenously expressing the α9 integrin. In human neutrophils, FACS analysis was conducted at the cell count of 1.0×10⁵ and antibodies were reacted on ice. Non-specific reaction with the Fc receptor was blocked with 50% goat serum. FITC-labeled anti-mouse IgG antibody was used as a secondary antibody. As a result (see FIGS. 20a, 20b and 20c), all of the anti-human α9 integrin antibodies could detect the α9 integrin on Human α9/CHO-K1 and human neutrophils. None of the antibodies reacted with Human α4/CHO-K1 cells (see FIGS. 20a, 20b and 20c).

Row | Binder | binding result [1] | binding result [2] | binding result [3] | binding result [4] | binding result [5] | binding result [6] | binding result [7] | binding result [8] | binding result [9] | binding result [10] | binding result [11] | binding result [12] | binding result [13] | binding result [14] | binding result [15]
1 | 1K11 mouse anti-human α9 integrin monoclonal antibody (FERM BP-10510) (antibody, mouse IgG1, V domains shown, Mouse IgG1 from hybridoma) VH: VQLQESGPELVKPGASVKIPCKASGYTFTDYNMDWVKQSHGKSLEWIGDINPNNGGTIYNQKFQGKATLTVDKSSSTAYMELRSLTSEDTAVYYCARSGVISTDYWGQGTTVTVSS VL: DIQMTQSPPSLSASLGERVSLTCRASQEISGYLIWLQQKPDGTIQRLIYAASTLDSGVPKRFSGSRSGSDYSLTISSLESEDFADYYCLQYANYPPTFGGGTKLEIKR | no binding | binds | binds | binds | binds | binds | binds | binds | binds | binds | binds | binds | binds | binds | 
2 | 24I11 mouse anti-human α9 integrin monoclonal antibody (FERM BP-10512) (antibody, mouse IgG1, V domains shown, Mouse IgG1/kappa from hybridoma; also called mouse 24I11) VH: EVQLQQSGAELVKPGASVKLSCTASGFNIKDTYVHWVKQRPEQGLEWIGNIDPANGNTKYDPKFQGKATITADTSSNTAYLHLSSLTSEDTAVYYCARWLRHFYYAMDYWGQGTSVTVSS VL: DIQMTQSPASLAASVGETVTITCRASENIYYSLAWYQQKQGKSPQLLIYNANSLEDGVPSRFSGSGSGTQYSMKINSMQPEDTATYFCKQAYDVPYTFGGGTKLEIK |  | binds |  | binds | binds |  |  | binds | binds | binds | binds | binds | binds | binds | no binding
3 | 21C5 mouse anti-human α9 integrin monoclonal antibody (FERM BP-10511) (antibody, mouse IgG1, V domains shown, Mouse IgG1 from hybridoma; cloned with degenerate primers) VH: VQLQESGGGLVKPGGSLKLSCAASGFTFSDYYMYWVRQTPEKRLEWVATISDGGNYTYYPDSVKGRFTISRDNAKNNLYLQMSSLKSEDTAMYYCARDRDGSSLFAYWGQGTTVTVSS VL: KFMSTSVGDRVSITCKASQDVNIAVAWYQQRPGQSPKLLIYWASTRHTGVPDRFTGSGSGTDYTLTISSVQAEDLALYYCQQHYNTPWTFGGGTKLEIKR | no binding |  |  |  |  |  |  |  |  |  |  |  |  |  | 
4 | 28S1 mouse anti-human α9 integrin monoclonal antibody (FERM BP-10832) (antibody, mouse IgG1, V domains shown, Mouse IgG1 from hybridoma) VH: VKLQESGPGLVAPSQSLSITCTVSGFSLTGYGVNWVRQPPGKGLEWLGMIWGDGITEYNSALKSRLSISKDNSKSQVFLKMNSLQTDDTARYYCARDASSGYGFAYWGQGTTVTVSS VL: YIVLTQSPAIMSASLGERVTMTCTASSSVSSSYLHWYQQKPGSSPKLWIYSTSNLASGVPARFSGSGSGTSYSLTISSMEAEDAATYYCHQYHRSPYTFGGGTKLEIKR |  |  |  |  |  |  |  |  |  |  |  |  |  |  | no binding
